The values that follow come from US20200339670A1 (published 2020).

The target of series [1] is T1, TAMRA-labelled Aβ1-42 (UniProt P05067 672-713, TAMRA label (position not given)).
T1 construct: domain: Aβ1-42; also called TAMRA-Aβ1-42; TAMRA-Aβ
Nature of the series: flow cytometry of supernatants of immunostimulated primary microglia incubated with Aβ1-42. The method, then: Supernatants containing ASC specks were subsequently incubated with Aβ₁₋₄₂ for 6 h and thereafter analyzed by flow cytometry. (b) Upper panel: Immunoprecipitation and immunoblot detection of ASC in unstimulated, immunoactivated wildtype (wt) and ASC knockout (ASC^{-/-}) macrophages. ASC monomer detection is restricted to supernatants of immunoactivated, ASC-competent wt cells and absent in unstimulated wt cells or ASC^{-/-} macrophages. Lower panel: Immunoprecipitation of ASC followed by immunoblot detection of Aβ under the same experimental conditions as described for the upper panel. ASC bound Aβ is exclusively detected in supernatants derived from immunoactivated wt macrophages but not from unstimulated wt or ASC^{-/-} cells. (c) Upper panel: Immunoprecipitation of ASC and immunoblot detection of ASC in unstimulated, immunoactivated wt and ASC^{-/-} microglia. ASC monomer detection is restricted to supernatants of immunoactivated ASC competent wt cells and absent in unstimulated wt cells or ASC^{-/-} macrophages. […] ASC bound Aβ is exclusively detected in supernatants derived from immunoactivated wt microglia but not from unstimulated wt or ASC^{-/-} cells. […] (f) Flow cytometry quantification of ASC-TAMRA-labelled […] after immunostimulation of microglia. […]

Series [2] concerns the molecule itself. Nature of the series: immunoblot for ASC over incubation time (self-association).

T1 sequence (P05067 672-713 limits assumed): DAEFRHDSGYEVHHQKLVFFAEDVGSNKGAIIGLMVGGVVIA

B1: ASC specks released by immunostimulated wild-type primary murine microglia or murine macrophages (other, UniProt Q9EPB4 1-193, looked up)
chain: MGRARDAILDALENLSGDELKKFKMKLLTVQLREGYGRIPRGALLQMDAIDLTDKLVSYYLESYGLELTMTVLRDMGLQELAEQLQTTKEESGAVAAAASVPAQSTARTGHFVDQHRQALIARVTEVDGVLDALHGSVLTEGQYQAVRAETTSQDKMRKLFSFVPSWNLTCKDSLLQALKEIHPYLVMDLEQS
notes: Endogenous protein in cell-free supernatants; aggregated (speck) form; also called Microglia released ASC specks
For the molecule B1, the binding result in series [1] is given as “binds”.

B2: recombinant mutant ASC specks (recASC; K21A, K22A and K26A) in the ASC-PYD domain (other)
chain: MGRARDAILDALENLTAEELAAFKLALLSVPLREGYGRIPRGALLSMDALDLTDKLVSFYLETYGAELTANVLRDMGLQEMAGQLQAATHQGSGAAPAGIQAPPQSAAKPGLHFIDQHRAALIARVTNVEWLLDALYGKVLTDEQYQAVRAEPTNPSKMRKLFSFTPAWNWTCKDLLLQALRESQSYLVEDLERS
notes: Made and prepared as the wild-type recombinant protein; also called recASC K21A, K22A, K26A; ASC-PYD mutant; not shown: TEV protease cleavage site; mCherry; C-terminal hexa-histidine tag from pET-23a
As to B2, the binding result in series [2] is “no binding”.
